From patent US20230002496A1 (STAIDSON BEIJING BIOPHARMACEUTICALS, published 2023)
Residue numbers refer to the chain shown, from its start.

T1: human GM-CSFRα, full length on cells (human, UniProt P15509 23-400)
T1 sequence: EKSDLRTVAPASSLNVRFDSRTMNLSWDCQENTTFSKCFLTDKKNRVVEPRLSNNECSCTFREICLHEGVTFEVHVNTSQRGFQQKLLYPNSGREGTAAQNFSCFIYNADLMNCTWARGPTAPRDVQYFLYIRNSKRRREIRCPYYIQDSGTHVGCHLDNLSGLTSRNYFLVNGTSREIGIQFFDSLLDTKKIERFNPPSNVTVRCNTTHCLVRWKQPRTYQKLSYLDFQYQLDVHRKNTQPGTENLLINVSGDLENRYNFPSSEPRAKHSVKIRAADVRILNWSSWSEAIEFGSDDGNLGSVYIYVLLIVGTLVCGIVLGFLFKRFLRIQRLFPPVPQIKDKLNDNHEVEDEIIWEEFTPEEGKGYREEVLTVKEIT

B1: E35-scFv HE31C (scFv, V domains shown)
VH: QMQLVQSGAEVKKPGASVKVSCKVSGYTLTCLSIHWVRQAPGKGLEWMGGFDPEDGETIYAQKFQGRVTMTGDTSTDTAYLELSSLRSEDTALYYCATGRYTSLATTYGFDYWGQGTLVTVSS
VL: EIVMTQSPATLSLSPGERATLSCRASQSVSSYLAWYQQKPGQAPRLLIYGASSRATGIPDRFSGSGSGTDFTLTISRLEPEDFAVYYCQQYDNWPYTFGQGTKLEIK
B2: E35-scFv HT28V (scFv, V domains shown)
VH: B1 VH with T28V, C31E
VL: B1 VL
B3: E35-scFv HT28W (scFv, V domains shown)
VH: B1 VH with T28W, C31E
VL: B1 VL
B4: E35-scFv HT30K (scFv, V domains shown)
VH: B1 VH with T30K, C31E
VL: B1 VL
B5: E35-scFv HT28K (scFv, V domains shown)
VH: B1 VH with T28K, C31E
VL: B1 VL
B6: E35-scFv HT30M (scFv, V domains shown)
VH: B1 VH with T30M, C31E
VL: B1 VL
B7: E35-scFv HT30D (scFv, V domains shown)
VH: B1 VH with T30D, C31E
VL: B1 VL
B8: E35-scFv LS26N (scFv, V domains shown)
VH: B1 VH with C31E
VL: B1 VL with S26N
B9: E35-scFv HT28S (scFv, V domains shown)
VH: B1 VH with T28S, C31E
VL: B1 VL
B10: E35-scFv HT30Q (scFv, V domains shown)
VH: B1 VH with T30Q, C31E
VL: B1 VL
B11: E35-scFv HT30V (scFv, V domains shown)
VH: B1 VH with T30V, C31E
VL: B1 VL
B12: E35-scFv HT30P (scFv, V domains shown)
VH: B1 VH with T30P, C31E
VL: B1 VL
B13: E35-scFv LS26A (scFv, V domains shown)
VH: B1 VH with C31E
VL: B1 VL with S26A
B14: E35-scFv HT28M (scFv, V domains shown)
VH: B1 VH with T28M, C31E
VL: B1 VL
B15: E35-scFv LS26K (scFv, V domains shown)
VH: B1 VH with C31E
VL: B1 VL with S26K
B16: E35-scFv HT30R (scFv, V domains shown)
VH: B1 VH with T30R, C31E
VL: B1 VL
B17: E35-scFv LS26H (scFv, V domains shown)
VH: B1 VH with C31E
VL: B1 VL with S26H
B18: E35-scFv HT30A (scFv, V domains shown)
VH: B1 VH with T30A, C31E
VL: B1 VL
B19: E35-scFv LQ27Y (scFv, V domains shown)
VH: B1 VH with C31E
VL: B1 VL with Q27Y
B20: E35-scFv HT28L (scFv, V domains shown)
VH: B1 VH with T28L, C31E
VL: B1 VL
B21: E35-scFv HT28A (scFv, V domains shown)
VH: B1 VH with T28A, C31E
VL: B1 VL
B22: E35-scFv LS26R (scFv, V domains shown)
VH: B1 VH with C31E
VL: B1 VL with S26R
B23: E35-scFv LS26G (scFv, V domains shown)
VH: B1 VH with C31E
VL: B1 VL with S26G
B24: E35-scFv HT28N (scFv, V domains shown)
VH: B1 VH with T28N, C31E
VL: B1 VL
B25: E35-scFv HT30Y (scFv, V domains shown)
VH: B1 VH with T30Y, C31E
VL: B1 VL
B26: E35-scFv HT28E (scFv, V domains shown)
VH: B1 VH with T28E, C31E
VL: B1 VL
B27: E35-scFv HT30E (scFv, V domains shown)
VH: B1 VH with T30E, C31E
VL: B1 VL
B28: E35-scFv HT30N (scFv, V domains shown)
VH: B1 VH with T30N, C31E
VL: B1 VL
B29: E35-scFv LS26T (scFv, V domains shown)
VH: B1 VH with C31E
VL: B1 VL with S26T
B30: E35-scFv LS26Q (scFv, V domains shown)
VH: B1 VH with C31E
VL: B1 VL with S26Q
B31: E35-scFv LS26I (scFv, V domains shown)
VH: B1 VH with C31E
VL: B1 VL with S26I
B32: E35-scFv HT30W (scFv, V domains shown)
VH: B1 VH with T30W, C31E
VL: B1 VL
B33: E35-scFv LS26L (scFv, V domains shown)
VH: B1 VH with C31E
VL: B1 VL with S26L
B34: E35-scFv HT28H (scFv, V domains shown)
VH: B1 VH with T28H, C31E
VL: B1 VL
B35: E35-scFv HT28G (scFv, V domains shown)
VH: B1 VH with T28G, C31E
VL: B1 VL
B36: E35-scFv HT30L (scFv, V domains shown)
VH: B1 VH with T30L, C31E
VL: B1 VL
B37: E35-scFv HT28P (scFv, V domains shown)
VH: B1 VH with T28P, C31E
VL: B1 VL
B38: E35-scFv LS26M (scFv, V domains shown)
VH: B1 VH with C31E
VL: B1 VL with S26M
B39: E35-scFv HT30S (scFv, V domains shown)
VH: B1 VH with T30S, C31E
VL: B1 VL
B40: E35-scFv LS26C (scFv, V domains shown)
VH: B1 VH with C31E
VL: B1 VL with S26C
B41: E35-scFv HT30G (scFv, V domains shown)
VH: B1 VH with T30G, C31E
VL: B1 VL
B42: E35-scFv LQ27P (scFv, V domains shown)
VH: B1 VH with C31E
VL: B1 VL with Q27P
B43: E35-scFv HT28C (scFv, V domains shown)
VH: B1 VH with T28C, C31E
VL: B1 VL
B44: E35-scFv LQ27A (scFv, V domains shown)
VH: B1 VH with C31E
VL: B1 VL with Q27A

Target: T1, human GM-CSFRα, full length on cells
Assay: cell-based or functional assay

Binder | IC50, TF-1 cell proliferation
B1 | 0.36 µg/mL
B2 | 0.08 µg/mL
B3 | 0.11 µg/mL
B4 | 0.325 µg/mL
B5 | 0.217 µg/mL
B6 | 0.174 µg/mL
B7 | 0.132 µg/mL
B8 | 0.054 µg/mL
B9 | 0.11 µg/mL
B10 | 0.192 µg/mL
B11 | 0.158 µg/mL
B12 | 0.126 µg/mL
B13 | 0.062 µg/mL
B14 | 0.11 µg/mL
B15 | 0.069 µg/mL
B16 | 0.35 µg/mL
B17 | 0.089 µg/mL
B18 | 0.215 µg/mL
B19 | 0.065 µg/mL
B20 | 0.1 µg/mL
B21 | 0.13 µg/mL
B22 | 0.072 µg/mL

Binder | IC50, TF-1 cell proliferation
B23 | 0.078 µg/mL
B24 | 0.17 µg/mL
B25 | 0.142 µg/mL
B26 | 0.091 µg/mL
B27 | 0.132 µg/mL
B28 | 0.178 µg/mL
B29 | 0.081 µg/mL
B30 | 0.075 µg/mL
B31 | 0.073 µg/mL
B32 | 0.151 µg/mL
B33 | 0.044 µg/mL
B34 | 0.06 µg/mL
B35 | 0.16 µg/mL
B36 | 0.181 µg/mL
B37 | 0.093 µg/mL
B38 | 0.089 µg/mL
B39 | 0.213 µg/mL
B40 | 0.114 µg/mL
B41 | 0.199 µg/mL
B42 | 0.097 µg/mL
B43 | 0.12 µg/mL
B44 | 0.104 µg/mL
